Earlier results, collected in paper PMC3012698, “Characterization of a Novel Interaction between Bcl-2 Members Diva and Harakiri” (PLoS ONE, 2010).

Tests used:
[1] = ref [10]
Description: Circular dichroism (CD) experiments were performed on Harakiri's cytosolic domain to obtain information on its conformational behavior. […] Thus, the cytosolic domain of Harakiri is largely unstructured. Consequently, the NMR spectra of Hrk_ΔTM show small amide ^1H chemical shift dispersion (from ∼7.9 to 8.7 ppm) and severe signal overlap ( Fig. 6 ). These spectral features together with the absen ...

Diva = conditions: ref [21]
Description: Harakiri localizes in membranes and exerts proapoptotic activity by interacting with survival Bcl-XL and Bcl-2 [18]. Harakiri has not been characterized at the structural level except for its C-terminal sequence (∼30 amino acids), which is known from low-resolution techniques to adopt α-helical conformation in model membranes. Diva has also been found predominantly in membranes [20]–[21]. However, little functional data on Diva is available. Specifically, previous independent reports indicate that Diva can have both pro- or antiapoptotic function [20]–[21]. Diva has also been ...

B1: Bad: BH3-only protein Bad (protein, UniProt Q92934 1-168, looked up)
Bcl2-associated agonist of …: MFQIPEFEPSEQEDSSSAERGLGPSPAGDGPSGSGKHHRQAPGLLWDASHQQEQPTSSSHHGGAGAVEIRSRHSSYPAGTEDDEGMGEEPSPFRGRSRSAPPNLWAAQRYGRELRRMSDEFVDSFKKGLPRPKSAGTATQMRQSSSWTRVFQSWWDRNLGRGSSAPSQ
- structural state of unbound BH3-only protein [1]: unstructured

B2: Bik: proapoptotic Bcl-2 member Bik (protein, UniProt Q13323 1-160, looked up)
Bcl-2-interacting killer: MSEVRPLSRDILMETLLYEQLLEPPTMEVLGMTDSEEDLDPMEDFDSLECMEGSDALALRLACIGDEMDVSLRAPRLAQLSEVAMHSLGLAFIYDQTEDIRDVLRSFMDGFTTLKENIMRFWRSPNPGSWVSCEQVLLALLLLLALLLPLLSGGLHLLLK
- binding to Diva (co-immunoprecipitation) (Diva): bind

B3: Bak: proapoptotic Bcl-2 member Bak (protein, UniProt Q16611 2-211, looked up)
Bcl-2 homologous …: ASGQGPGPPRQECGEPALPSASEEQVAQDTEEVFRSYVFYRHQQEQEAEGVAAPADPEMVTLPLQPSSTMGQVGRQLAIIGDDINRRYDSEFQTMLQHLQPTAENAYEYFTKIATSLFESGINWGRVVALLGFGYRLALHVYQHGLTGFLGQVTRFVVDFMLHHCIARWIAQRGGWVAALNLGNGPILNVLVVLGVVLLGQFVVRRFFKS
- binding to Diva (co-immunoprecipitation) (Diva): bind
